Consider 9 molecules from patent publication US12365732 (23ANDME, dated 2025).

T1: hu-CD96 isoform 1 on HEK293T cells (human, UniProt P40200 22-585)
T1 construct: Origene RC213845, transient expression; also called HEK293T-CD96 (iso1)
T1 sequence: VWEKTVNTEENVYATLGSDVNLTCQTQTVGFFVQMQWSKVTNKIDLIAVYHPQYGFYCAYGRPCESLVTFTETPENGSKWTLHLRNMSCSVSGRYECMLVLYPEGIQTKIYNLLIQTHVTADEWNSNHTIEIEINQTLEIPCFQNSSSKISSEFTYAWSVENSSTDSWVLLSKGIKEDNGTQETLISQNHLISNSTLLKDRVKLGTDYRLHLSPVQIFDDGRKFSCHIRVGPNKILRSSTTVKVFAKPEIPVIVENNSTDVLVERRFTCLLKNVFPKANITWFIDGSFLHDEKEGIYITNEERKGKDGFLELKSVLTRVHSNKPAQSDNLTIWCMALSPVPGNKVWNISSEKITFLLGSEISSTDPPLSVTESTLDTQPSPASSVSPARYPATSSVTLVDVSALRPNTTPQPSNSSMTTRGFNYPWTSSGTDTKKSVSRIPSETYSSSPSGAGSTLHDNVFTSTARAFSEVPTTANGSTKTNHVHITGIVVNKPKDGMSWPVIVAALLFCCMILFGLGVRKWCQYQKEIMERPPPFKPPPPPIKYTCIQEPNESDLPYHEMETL

T2: cy-CD96 (soluble, extracellular domain) (cynomolgus monkey, UniProt P40200 22-516 (human entry), biotinylated in Octet and blocking ELISA)
T2 construct: the assays name only cy-CD96; also called biotinylated cy-CD96
T2 chain: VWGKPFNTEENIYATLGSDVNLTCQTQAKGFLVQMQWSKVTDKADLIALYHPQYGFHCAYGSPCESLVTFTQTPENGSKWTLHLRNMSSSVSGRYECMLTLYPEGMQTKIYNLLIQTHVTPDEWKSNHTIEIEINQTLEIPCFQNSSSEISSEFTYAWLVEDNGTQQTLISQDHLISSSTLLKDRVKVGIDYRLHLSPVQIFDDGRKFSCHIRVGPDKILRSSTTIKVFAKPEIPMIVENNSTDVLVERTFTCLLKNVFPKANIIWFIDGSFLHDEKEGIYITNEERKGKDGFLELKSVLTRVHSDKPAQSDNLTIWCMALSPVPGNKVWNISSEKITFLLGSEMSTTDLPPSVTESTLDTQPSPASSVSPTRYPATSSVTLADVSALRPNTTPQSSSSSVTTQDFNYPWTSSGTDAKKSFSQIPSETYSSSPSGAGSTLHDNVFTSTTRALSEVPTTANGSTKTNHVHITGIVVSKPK

B1: mAb1.v7 IgG (humanized 12F8) (antibody, V domains shown)
VH: EVQLVQSGAEVKKPGASVKVSCKASGFTFTNNWMHWVRQAPGQGLEWIGMIHPNSGITNINEKFKNRVTMTTDTSTSTAYMELRSLRSEDTAVYYCRSDGTYEGYFDYWGQGTLVTVSS
VL: DIQLTQSPSSLSASVGDRVTITCKASQNVGTAIVWYQQKPGKAPKVLIYSASTRYTGVPSRFSGSGSGTDFTLTISSLQPEDFATYYCQQYSSSPLTFGQGTKVEIKG
notes: human IgG1 N297G
B2: 7E5, purified hybridoma antibody (antibody, V domains shown)
VH: QVQLKESGPGLVAPSQSLSIICTVSGFSLTNYGIHWIRQPPGKGLEWLGIIWAGGSTNYNSALMSRLTISKDNSKSQVFLKMNSLQTNDTAIYYCARVSMMGFAYWGQGTLVTVSA
VL: QAVVTQESALTTSPGETVTLTCRSSTGAVTTSNYANWVQEKPDHLFTGLIGGTNNRAPGVPARFSGSLIGDKAALTITGAQTEDEAIYFCSLWYGSHWVFGGGTKLTVL
notes: murine hybridoma IgG
B3: 10G1 (clone 10G1.3G8), purified hybridoma antibody (antibody, V domains shown)
VH: QIQLVQSGPELKKPGETVKISCKASGYPFTTYGMSWVKQAPGKGLKWMGWINTDSGVPTYADDFKGRFAFSLETSANTAYLQINSLKNEDAATYFCARNIYYGWGNFDYWGQGTILTVSS
VL: DILMTQSPTTLSVTPGETVSLSCRASQDIYRNLHWYQQKSQGTPRLLIKHASDSISGIPSRFTGSGSGTDFTLSINSVKPEDEGIYYCLQGYSMPYTFGGGTKLEIK
notes: murine hybridoma IgG
B4: 9H4, purified hybridoma antibody (antibody, V domains shown)
VH: EVQLLETGGGLVKSGGSLKLSCAASGFTFSDYYMYWVRQTPEKRLEWVAAISDDGTYTYYPDSVKGRFTISRDNANNYLYLQMSSLKSEDTAIYYCAKAGSYDYFDVWGAGTTVTVSS
VL: DIVLTQSPASLAVSLGQRAIISCKASQSVTFADTGLMHWYQQKPGQQPKLLIYRASNLEVGVPTRFSGSGSGTDFTLNIHPVEEEDVATYYCQQSREYPWTFGGGTKLEIK
notes: murine hybridoma IgG
B5: mAb1.v7.2 Fab (Fab, V domains shown)
VH: EVQLVQSGAEVKKPGASVKVSCKASGFTFTNNWRHWVRQAPGQGLEWIGMIHFNSGITNINEKFKNRVTMTTDTSTSTAYMELRSLRSEDTAVYYCRSDGVYEGYFDYWGQGTLVTVSS
VL: DIQLTQSPSSLSASVGDRVTITCKASQNVGTAIVWYQQKPGKAPKVLIYSASTRYTGVPSRFSGSGSGTDFTLTISSLQPEDFATYYCQQYSSSPLTFGQGTKVEIK
notes: also called M34R/P52aF/T97V
B6: mAb1.v7.9 Fab (Fab, V domains shown)
VH: EVQLVQSGAEVKKPGASVKVSCKASGFTFTNNWRHWVRQAPGQGLEWIGMIHMNSGITNINEKFKNRVTMTTDTSTSTAYMELRSLRSEDTAVYYCRSDGVYEGYFDYWGQGTLVTVSS
VL: DIQLTQSPSSLSASVGDRVTITCKASQNVGTAIVWYQQKPGKAPKVLIYSASTRYTGVPSRFSGSGSGTDFTLTISSLQPEDFATYYCQQYSSSPLTFGQGTKVEIK
notes: also called M34R/P52aM/T97V
B7: mAb1.v7.16 Fab (Fab, V domains shown)
VH: EVQLVQSGAEVKKPGASVKVSCKASGFTFTNNWRHWVRQAPGQGLEWIGMIHPNSGITNINEKFKNRVTMTTDTSTSTAYMELRSLRSEDTAVYYCRSDGVYEGYFDYWGQGTLVTVSS
VL: DIQLTQSPSSLSASVGDRVTITCKASQNVGTAIVWYQQKPGKAPKVLIYSASTRYTGVPSRFSGSGSGTDFTLTISSLQPEDFATYYCQQYSSSPLTFGQGTKVEIK
notes: also called M34R/T97V
B8: mAb1.v7.48 Fab (Fab, V domains shown)
VH: EVQLVQSGAEVKKPGASVKVSCKASGFTFTNRWMHWVRQAPGQGLEWIGMIHHNSGITNINEKFKNRVTMTTDTSTSTAYMELRSLRSEDTAVYYCRSDGVYEGYFDYWGQGTLVTVSS
VL: DIQLTQSPSSLSASVGDRVTITCKASQNVGTAIVWYQQKPGKAPKVLIYSASTRYTGVPSRFSGSGSGTDFTLTISSLQPEDFATYYCQQYSSSPLTFGQGTKVEIK
notes: also called N32R/P52aH/T97V
B9: mAb1.v7.70 Fab (Fab, V domains shown)
VH: EVQLVQSGAEVKKPGASVKVSCKASGFTFTNRWMHWVRQAPGQGLEWIGMIHANSGITNINEKFKNRVTMTTDTSTSTAYMELRSLRSEDTAVYYCRSDGVYEGYFDYWGQGTLVTVSS
VL: DIQLTQSPSSLSASVGDRVTITCKASQNVGTAIVWYQQKPGKAPKVLIYSASTRYTGVPSRFSGSGSGTDFTLTISSLQPEDFATYYCQQYSSSPLTFGQGTKVEIK
notes: also called N32R/P52aA/T97V

The target in the first experiment is T1, hu-CD96 isoform 1 on HEK293T cells. Briefly: FACS, Ab 0.016 nM. Here is the method: Isoform 1 of hu-CD96 (Origene, catalog #RC213845) was transiently expressed in HEK293T cells following standard lipofectamine or Fugene transfection protocol. […] Cells were washed, and binding was detected by incubation with anti-mouse IgG-FITC (Biolegend, catalog #406001) for 20 minutes at 4° C. Cell binding was analyzed by flow cytometry with a CytoFLEX (Beckman Coulter). Binding curves were calculated as a percentage of cells positive for bound antibody.
B1: the “% positive” value turned out to be 0.5%.
For the molecule B2, the “% positive” value worked out at 1%.
Same read-out and setting: in the case of B3 it was 4.4%; in that of B4, 0.5%.

Another experiment has as its target T2, cy-CD96 (soluble, extracellular domain). As to the kind of experiment: ELISA, blocks biotin-CD96 binding to coated hu-CD155-mFc. Here is the method:
The selected 5 affinity matured Fab variants of mAb1.v7 Fab were assayed for blocking of human CD155 (hu-CD155) receptor by ELISA as follows. Briefly, 96-well MAXISORP® flat bottom plates (Thermofisher, Cat #439454) were coated overnight at 4° C. with 2 µg/mL goat anti-mouse Fc (Thermofisher, Cat #31168) in PBS. After removing the coating solution, unspecific binding was blocked with PBS containing 1% bovine serum albumin (BSA) and incubation at room temperature for one hour. Plates were then washed five times in PBS with 0.05% TWEEN®-20 (wash buffer) and added […] hu-CD155-mFc in PBS for 1 hour in room temperature. During blocking period, 50 µL/well of 4 nM biotinylated hu-CD96 or 40 nM biotinylated cy-CD96 with serial dilution of the Fab variants 50 µL/well (starting at 2 µM, 1:3 dilution) for two hours at room temperature with PBS containing 0.5% BSA and 0.05% Tween 20 (ELISA buffer) in NUNC F plate (Thermofisher, Cat #269620). Then transferred the antigen-antibody mix solution 80 µL/well into hu-CD155-mFc coated wells at room temperature for 15 min. Plates were then washed with wash buffer to which was added 50 µL/well Streptavidin poly-HRP (Thermofisher, Cat #21140) diluted 1:5000 in ELISA buffer at room temperature for one hour with agitation. […] Enzymatic color development was stopped with 50 µL/well of TMB stop solution (VWR, Cat #95059-200). Plates were analyzed with a SpectraMax i3X plate reader (Molecular Devices) at 450 nm. […] The blocking $IC50$ values for the mAbv1.7 and the 5 selected affinity matured Fab variants (mAb1.v7.2, mAb1.v7.9, mAb1.v7.16, mAb1.v7.48, mAb1.v7.70) are summarized in Table 10 (above).
(An ELISA detects its analyte on a solid surface through an enzyme-linked reagent.)
Turning to B5, the IC50 was found to be 2.17 nM.
Still for that read-out and setting: with B6 the figure was 3.18 nM.
The same measure, in the same setting: in the case of B7 it was 1.42 nM; in that of B8, 4.8 nM.
Same read-out and setting: with B9 the figure was 2 nM.

The term IC50 denotes the concentration at which inhibition is half-maximal.
